Test results taken from PMC9167920.

Target: CTSL-treated SARS-CoV-2 S protein ectodomain SR (cleaved at CS-1, T259/A260, and CS-2, Y636/S637) (SARS-CoV-2) (UniProt P0DTC2)
Test: cryo-EM structure

Substance: CTSL-treated SARS-CoV-2 S protein ectodomain SR (cleaved at CS-1, T259/A260, and CS-2, Y636/S637) (from UniProt P0DTC2) (domain or fragment)
- stoichiometry N: 3
